“Also recorded” adds a separate entry of the source.
B1: RANKL: Receptor Activator of NF-κB Ligand; recombinant murine RANKL used for stimulation (protein, UniProt O35235 139-316, looked up)
Tumor necrosis factor ligand …: FSGAPAMMEGSWLDVAQRGKPEAQPFAHLTINAASIPSGSHKVTLSSWYHDRGWAKISNMTLSNGKLRVNQDGFYYLYANICFRHHETSGSVPTDYLQLMVYVVKTSIKIPSSHNLMKGGSTKNWSGNSEFHFYSINVGGFFKLRAGEEISIQVSNPSLLDPDQDATYFGAFKVQDID

Legend:
Lin-CD24+CD49f^hi cells = test: FACS quantification of MaSC-enriched CD24+CD49high population from mammary glands; format: in vivo, mouse; conditions: MPA for 3 days
Procedure: a, Epithelial proliferation in mammary glands of control littermates and RANK^Δmam females 3 days after sham treatment and MPA implantation. Proliferation was determined by in situ Ki67 immunostaining. b,c, Marked increase of the stem cell-enriched CD24^+CD49^high population (MaSC) in MPA-treated mammary glands in control but not in RANK^Δmam mammary glands. b, Representative FACS profiles showing CD24 and CD49 expression of lineage negative (CD31^− (endothelial cells) CD45^− (hematopoietic cells) […] (erythroid cells)) of mammary MaSCs from MPA- or sham-treated 8-week old virgin females. c, Quantification of MaSC-enriched CD24^+CD49^high population from mammary glands of MPA- or sham-treated virgin RANK^Δmam and littermate control females. For all MaSCs experiments mice were treated with MPA for 3 days. n=4 per group+/−sem. *P<0.05; ***P<0.001 (Student's t-test).
Recently it has been reported that endogenous progesterone affects the numbers of Lin-CD24+CD49f^hi stem cells during pregnancy^15 and the estrous cycle^16. In both studies, the RANKL/RANK system was implicated based on in vivo whole body Ab blocking studies and RT-PCR expression, however, it was not known whether this is a direct effect of RANKL-RANK in mammary epithelial cells rather than a secondary effect. Therefore it was assayed whether progestins such as MPA can also expand Lin-CD24+CD49f^hi cells.

[1] = system: primary mouse mammary gland epithelial cells (MECs); test: Western blotting of RANKL/RANK downstream signaling in MECs; format: cell-based; conditions: RANKL stimulation (1 μg/ml)
Procedure: (§1) a, Western blotting for phosphorylated (P) IKKα, total IKKα, phosphorylated (P) p65 NFκB, total p65 NFκB, phosphorylated (P) IκBα, and total IκBα in isolated primary mouse mammary gland epithelial cells (MECs) in response to RANKL stimulation (1 μg/ml). […] is shown as loading control. b, Western blotting for IKKα, IKKβ, IKKγ, phosphorylated (P) p65 NFκB, total p65 NFκB, phosphorylated (P) IκBα, and total IκBα in pooled late stage mammary adenocarconimas (n=4 for each lane) that developed in control, RANK^Δmam, and IKKα^Δmam females. β-actin is shown as loading control c, Expression of RANK, CyclinD1, and p21 mRNA in late stage mammary adenocacinomas that developed in control, RANK^Δmam, and IKKα^Δmam females. Expression was determined by qRT-PCR. Data are mean values+/−sem. n=4 per group. d, Soft-Agar Colony Formation Assay. Growth of human SKBR3 breast cancer cells in soft agar in response to stimulation with RANKL (1 μg/ml) or EGF (100 ng/ml). […] Apoptosis was detected by immunostaining for active Caspase 3. f, Apoptotic nuclei of epithelial cells (arrows) are shown for representative mammary gland sections. Magnifications ×40. g, Quantification of mammary epithelial apoptosis. A minimum of 5000 nuclei was counted for each mouse. […]

[2] = system: human SKBR3 breast cancer cells; test: Soft-Agar Colony Formation Assay; format: cell-based; conditions: RANKL (1 μg/ml), 18 days in culture
Procedure: as §1

Molecule | expansion of Lin-CD24+CD49f^hi cells (Lin-CD24+CD49f^hi cells; RANK^Δmam females) | expansion of Lin-CD24+CD49f^hi cells (Lin-CD24+CD49f^hi cells; control females) | p65 NFκB and IκBα phosphorylation [1] | phosphorylation of p38-MAPKs and ERK [1] | anchorage-independent growth in soft agar [2]
CC(=O)O[C@]1(C(C)=O)CC[C@H]2[C@@H]3C[C@H](C)C4=CC(=O)CC[C@]4(C)[C@H]3CC[C@@]21C [MPA, medroxyprogesterone acetate] | did not occur | two-fold expansion |  |  | 
B1 |  |  | resulted in p65 NFκB and IκBα phosphorylation | triggered phosphorylation of p38-MAPKs and ERK | induced growth of SKBR3 cells in soft agar; also recorded: macroscopic colonies formed

Reference: patent US20130316374A1, “BREAST CANCER DIAGNOSTICS” (IMBA - INSTITUT FUR MOLEKULARE BIOTECHNOLOGIE GMBH, priority 2010, published 2013)
